Experimental findings from PMC7240051 are described below.

The assay concerns the target BnaA10.ABF2-cYFP (Brassica napus).

Turning to “BnaC7.RGA-nYFP (full length) (natural protein)”, the dual-luciferase assay in tobacco leaves: activity of pBnaC9.RAB18-LUC with BnaC7.RGA expressed together with BnaA10.ABF2, against the reporter only (BnaA10.ABF2 alone: 3.7 times) worked out at 11.8 times. For the substance “BnaA6.RGA-nYFP (full length) (natural protein)”, the dual-luciferase assay in tobacco leaves: activity of pBnaC9.RAB18-LUC with BnaA6.RGA expressed together with BnaA10.ABF2, against the reporter only (BnaA10.ABF2 alone: 3.7 times) stood at 6.5 times.
